In data set [1] the target is T1, p53rec (UniProt P04637 1-393). Kind of data set: competition; 1 uM competitor vs 20 nM labelled GADD45; EMSA: 0.4 uM p53 variant (0.1 uM tetramer), 20 nM 32P-DNA, 1 uM unlabelled competitor where used, 20 min at RT, native gel; a p53 369-383 peptide was synthesized for the EMSAs; buffer, salt and pH not in the material. The note with it: protein: recombinant; tags: untagged; chain copies: 4; label: none (unlabelled). A general note: Mobility shift assays separate free from complexed probe on a gel.
T1 sequence (P04637 whole entry): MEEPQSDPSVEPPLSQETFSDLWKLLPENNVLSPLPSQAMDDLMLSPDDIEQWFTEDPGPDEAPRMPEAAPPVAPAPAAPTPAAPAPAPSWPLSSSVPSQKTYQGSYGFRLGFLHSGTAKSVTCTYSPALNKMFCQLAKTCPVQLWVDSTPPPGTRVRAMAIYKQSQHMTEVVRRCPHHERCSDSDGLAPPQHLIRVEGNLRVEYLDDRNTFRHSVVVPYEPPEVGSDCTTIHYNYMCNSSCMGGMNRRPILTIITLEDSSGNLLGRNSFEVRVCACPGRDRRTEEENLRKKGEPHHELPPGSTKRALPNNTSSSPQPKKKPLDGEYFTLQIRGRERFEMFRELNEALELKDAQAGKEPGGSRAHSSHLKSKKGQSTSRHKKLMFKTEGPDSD

Data set [2] concerns the target T1, p53rec. Kind of data set: EMSA; 0.4 uM p53 (0.1 uM tetramer), 20 nM DNA; EMSA: 0.4 uM p53 variant (0.1 uM tetramer), 20 nM 32P-DNA, 1 uM unlabelled competitor where used, 20 min at RT, native gel; a p53 369-383 peptide was synthesized for the EMSAs; buffer, salt and pH not in the material. The note with it: protein: recombinant; tags: untagged; chain copies: 4; label: 32P.

This is an account of results in publication PMC8221199, “Semisynthetic ‘designer’ p53 sheds light on a phosphorylation–acetylation relay†”.

B1: randomized competitor (dsDNA)
DNA 1: CCACCATACCTTCGATTATCGCGCCCACTC
DNA 2: GAGTGGGCGCGATAATCGAAGGTATGGTGG
Take B1: the binding result in the data set with p53rec [1] is on record as “no binding”.

B2: GADD45 target (dsDNA)
DNA 1: GTACAGAACATGTCTAAGCATGCTGGGGAC
DNA 2: GTCCCCAGCATGCTTAGACATGTTCTGTAC
For B2, the binding result with p53rec [2] is listed as “binds”.

B3: GADD45 unlabelled competitor (dsDNA)
DNA 1: GTACAGAACATGTCTAAGCATGCTGGGGAC
DNA 2: GTCCCCAGCATGCTTAGACATGTTCTGTAC
Consider B3, for which the binding result with p53rec [1] is listed as “binds”.
